“And” between values parts separate entries of the source, which are not always exact repeats. Identical values can stand only once.

The series deals with the molecule itself. Briefly: crystal structure; crystals grown from the HAP2-scFv A20 complex, sitting drop, 293K, 0.2M LiSO4, 0.1M Tris-HCl pH 8.5, 25% w/v PEG 5000 MME; space group P6_(3)22, 2.6 Å; no density for the scFv.

B1: Chlamydomonas reinhardtii HAP2 ectodomain (residues 23-592) (domain or fragment)
chain: EVIASGRLEKCVVDGVTEELDCQEKVVVTLTVGNGQSLQTEALEFSLSCLNSPDGRCPCSCSAADPTCACRDLAAPLRVSLTKSPLWASYPLQYLSSFNWKPLEVILRPSNKVCKDGDWEDSPTCGWFSQGGVRVADSQGFCCECSSSQVWDDTFGSSKERTRANLDCDFWSDPLDILIGRKPVSAHCLTFDPQWYSGYELGAASLQFEIAITVEVPTAPSPTTATTSATPRTNNSSSANSTNSTNSPAPQFLSPPAPSTREVLHLGPSVPLASSASRLLSAKLLGDLAMYTQLPAISNQVLMVPQPPAAAAATGSPLDATLATNRSAWMLLDKTMLSMDGLACDKVGTGFSAFRYQPSGCGRAPQACLSGQLKDLWEADLARIADGRVPLYMITRFTGGSDTTLQSFSGGPLSFALPVTSHSQSLVTLSVAADGVRLVTNRSPGKITGAAVCRFAGTSCGGFEAVAARGYIYVNITNTGRLDSDYTLTVSNCSSNVRPIEARTLAVRAGSAASLDPPMELYVEDQAAAAARTCTVSLYDSVGAVTDSLTLSFYTNATQLVVKPSGGYNGDDDDK
modifications: N-linked glycan attached to Asn578; further N-linked glycans marked in Figure 1C
notes: HAP2, Chlamydomonas reinhardtii, Uniprot A4GRC6, soluble C-terminally truncated ectodomain, residues 23-592, ending at G592; enterokinase cleavage site immediately downstream of HAP2 G592, before the double strep-tag; Secreted from the vector pMT/BiP/TwinStrep; The strep tag was removed with enterokinase; Trimer in the crystal; trimers, hexamers and remaining monomers in solution; also called …
For B1, the “stoichiometry N” value is 3 and 6.

What is called stoichiometry N is a count of units in the complex or per binding partner.

Values taken from paper PMC6327110, “Species-Specific Functional Regions of the Green Alga Gamete Fusion Protein HAP2 Revealed by Structural Studies” (Structure(London, England:1993), 2019).
